The source of these data is article doi:10.1101/2020.04.13.035477.

Holding throughout (test): SPR
A general note: In SPR one partner is held on a chip, and binding of the other changes the refractive index at the surface.

For assay [1], the target named is H. polygyrus Alarmin Release Inhibitor (HpARI), full-length (Heligmosomoides polygyrus).
For assay [2], the target named is HpARI_CCP1/2 (truncation of HpARI lacking CCP3) (Heligmosomoides polygyrus).
For assay [3], the target named is HpARI_CCP2/3 (truncation of HpARI lacking CCP1) (Heligmosomoides polygyrus).
Chain of HpARI_CCP2/3 (truncation of HpARI lacking CCP1) (Heligmosomoides polygyrus) (A0A3P7XL18 126-297): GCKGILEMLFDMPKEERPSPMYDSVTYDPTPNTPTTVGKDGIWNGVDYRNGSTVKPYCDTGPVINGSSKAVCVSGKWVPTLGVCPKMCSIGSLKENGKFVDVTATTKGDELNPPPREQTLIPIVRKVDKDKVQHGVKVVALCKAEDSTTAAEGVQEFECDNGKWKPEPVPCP

Chain of HpARI_CCP1/2 (truncation of HpARI lacking CCP3) (Heligmosomoides polygyrus) (A0A3P7XL18 65-211): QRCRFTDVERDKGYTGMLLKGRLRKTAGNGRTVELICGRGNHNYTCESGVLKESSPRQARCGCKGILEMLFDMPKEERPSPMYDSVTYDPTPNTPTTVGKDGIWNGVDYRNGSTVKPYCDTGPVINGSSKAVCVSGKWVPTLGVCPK

“recombinant murine IL-33 (from UniProt Q8BVZ5 1-266) (ligand)”: the values for the Kd in assay [1], in assay [2] and in assay [3] were 1.1 nM, 9.8 nM and 1.4 nM, respectively. Further, the koff in assay [1] is 0.00015 s⁻¹; in assay [2], 0.003 s⁻¹.

As a reminder, the Kd is the equilibrium constant for the complex coming apart. A higher Kd goes with a looser complex. The koff is a measure of how fast the partners let go of each other. High values mean fast dissociation, low ones slow dissociation.
